Experimental data: patent publication CN115850497A (SHAANXI MAI YUAN BIOTECHNOLOGY CO LTD, dated 2023)

B1: 单克隆抗体10F1 (hybridoma-derived, clone 10F1-G8-D9) (antibody, V domains shown)
VH: EVQLQESGPSLVKPSQTLSLSCSVTGDSITSGYWNWIRKFPGNKLEYMGFISYSGNTYYNPSLKSRISITRDTSKNQYFLQLNSVTTEDTATYYCVRKGDYDGAWFAYWGQGTLVTVSA
VL: DIQMTQSPASLSASVGETVTITCRASGNIHNYLAWYQQKQGKSPQLLVYNAKTLADGVPSRFSGSGSGTQYSLKINSLQPEDFGSYYCQHFWSTPLTFGAGTKLELK
notes: Mouse hybridoma antibody; Tested as hybridoma culture supernatant; also called YKL-40单克隆抗体
B2: 重组单克隆抗体10F1 (expressed from 10F1m2a + 10F1mk in 293T cells) (antibody, V domains shown)
VH: B1 VH
VL: B1 VL
notes: also called 重组10F1单克隆抗体

Key:
[1] = target: YKL-40-strep (YKL-40 protein expressed from pGEX 4t-1 in E. coli BL21(DE3)) (human) (UniProt P36222); assay: ELISA, supernatant of subclone 10F1-G8-D9 on coated YKL-40, 3rd screen
[2] = target: T1, YKL-40-6his expressed from pcDNA3.1 in transfected 293T cells (human, UniProt P36222 22-383); assay: CBA, immunofluorescence of hybridoma supernatant on transfected fixed 293T cells
T1 construct: whole, on cells; also called YKL-40(YKL-40-6his); not shown: 6his tag
T1 sequence (P36222 22-383): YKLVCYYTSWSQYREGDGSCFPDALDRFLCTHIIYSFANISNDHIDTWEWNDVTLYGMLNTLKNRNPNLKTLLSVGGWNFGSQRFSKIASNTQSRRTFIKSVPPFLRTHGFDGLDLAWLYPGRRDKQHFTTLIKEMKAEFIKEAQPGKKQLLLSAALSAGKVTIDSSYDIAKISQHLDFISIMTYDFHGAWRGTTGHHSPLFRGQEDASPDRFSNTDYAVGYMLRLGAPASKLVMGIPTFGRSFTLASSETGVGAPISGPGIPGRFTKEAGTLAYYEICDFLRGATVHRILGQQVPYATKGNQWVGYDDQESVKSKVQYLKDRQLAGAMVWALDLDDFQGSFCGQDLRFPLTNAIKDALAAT

[3] = target: YKL-40-strep (YKL-40 protein expressed from pGEX 4t-1 in E. coli BL21(DE3)) (human) (UniProt P36222); assay: ELISA, uncloned hybridoma supernatant (plate 10, well F1) on coated YKL-40, 1st screen
[4] = target: T1, YKL-40-6his expressed from pcDNA3.1 in …; assay: immunofluorescence of 293T supernatant on transfected fixed 293T cells
[5] = target: T2, Q YKL-40-293-310-6his (YKL-40 construct lacking residues 293-310) (human, UniProt P36222 22-383); assay: immunofluorescence on transfected, acetone-fixed 293T cells
T2 construct: also called 缺失氨基酸区间293-310组; not shown: 6his tag
T2 sequence (P36222 other isoform, or with tags, fused parts or gaps limits assumed): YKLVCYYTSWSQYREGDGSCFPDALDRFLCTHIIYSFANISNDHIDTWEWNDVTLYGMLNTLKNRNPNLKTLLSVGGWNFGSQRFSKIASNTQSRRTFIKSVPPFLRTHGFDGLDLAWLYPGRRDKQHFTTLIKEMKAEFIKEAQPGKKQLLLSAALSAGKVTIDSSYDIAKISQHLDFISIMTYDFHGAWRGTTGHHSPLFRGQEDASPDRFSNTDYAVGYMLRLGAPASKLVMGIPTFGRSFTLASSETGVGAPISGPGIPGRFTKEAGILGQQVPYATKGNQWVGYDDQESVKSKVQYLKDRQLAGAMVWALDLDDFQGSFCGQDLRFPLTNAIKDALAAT

Row | Binder | OD450 [1] | binding result [2] | OD450 [3] | binding result [4] | binding result [5]
1 | B1 | 1.14 | binds | 0.905 | – | –
2 | B2 | – | – | – | binds | no binding
